Laboratory results published in the supplement of paper PMC9876800.

System: peptide library, one residue held at a place counted from the S/T acceptor
Test: relative phosphorylation of the sub-library (ratio to the mean residue at this position); higher = residue favoured
Method in brief: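 Purified recombinant kinases, either human or orthologue constructs, were incubated in 384-well plates with biotinylated degenerate peptide sub-libraries. Each sub-library fixed one residue at one position around a central Ser/Thr. Peptides at 50 μM and 50 μM ATP spiked with γ-32P-ATP were used for 90 min under kinase-specific conditions, and spots on streptavidin membranes were phosphorimaged and quantified by densitometry. Relative sub-library phosphorylation is expressed as a ratio to the mean residue at that position.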

Sequence of TAOK3, construct: Full length with a 14aa C-terminal extension from Gateway cloning, human (Q9H2K8 whole entry, looked up): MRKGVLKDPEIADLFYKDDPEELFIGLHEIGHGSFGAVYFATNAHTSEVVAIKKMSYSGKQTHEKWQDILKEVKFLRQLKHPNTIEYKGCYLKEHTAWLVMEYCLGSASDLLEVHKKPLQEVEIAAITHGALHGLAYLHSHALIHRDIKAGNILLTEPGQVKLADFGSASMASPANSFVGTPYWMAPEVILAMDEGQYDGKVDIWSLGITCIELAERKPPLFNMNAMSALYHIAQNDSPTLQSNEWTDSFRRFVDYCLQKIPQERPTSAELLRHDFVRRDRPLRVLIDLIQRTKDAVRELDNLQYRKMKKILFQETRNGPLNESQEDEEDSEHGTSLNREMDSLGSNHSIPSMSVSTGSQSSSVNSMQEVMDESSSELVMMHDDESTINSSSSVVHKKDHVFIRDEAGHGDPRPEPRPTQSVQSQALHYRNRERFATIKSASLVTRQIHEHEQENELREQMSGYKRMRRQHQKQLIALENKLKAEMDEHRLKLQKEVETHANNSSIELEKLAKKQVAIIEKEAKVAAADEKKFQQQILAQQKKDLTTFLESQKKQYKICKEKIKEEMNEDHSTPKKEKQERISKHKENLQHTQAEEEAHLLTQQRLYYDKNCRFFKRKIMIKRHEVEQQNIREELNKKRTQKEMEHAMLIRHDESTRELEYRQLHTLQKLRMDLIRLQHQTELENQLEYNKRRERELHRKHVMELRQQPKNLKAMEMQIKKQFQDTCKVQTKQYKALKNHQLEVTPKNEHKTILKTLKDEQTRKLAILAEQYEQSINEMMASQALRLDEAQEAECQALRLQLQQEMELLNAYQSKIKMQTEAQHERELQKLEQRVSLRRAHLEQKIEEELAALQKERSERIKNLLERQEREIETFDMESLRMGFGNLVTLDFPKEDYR

TAOK3, construct: Full length with a 14aa C-terminal extension from Gateway cloning, human (from UniProt Q9H2K8)
relative phosphorylation
Conditions	A fixed	D fixed	E fixed	F fixed	G fixed	H fixed	I fixed	K fixed	L fixed	M fixed
at +1	0.522	0.371	0.343	1.34	0.605	0.973	1.52	0.647	1.63	1.52
at +2	0.851	0.801	0.54	0.424	0.943	1.21	0.593	2.32	0.507	0.612
at +3	0.743	0.592	0.547	0.68	1.38	1.19	0.578	2.11	0.707	0.606
at +4	0.866	0.65	0.658	0.771	1.11	1.18	0.859	1.76	0.681	0.718
at -1	0.788	0.99	0.546	0.709	2.03	1.28	0.3	1.54	0.717	–
at -2	1.15	1.03	0.718	1.35	1.43	0.92	0.508	0.836	0.526	–
at -3	0.775	0.879	0.916	0.543	1.4	0.95	0.416	2.45	0.445	–
at -4	1.01	1.47	1.54	0.663	1.27	1.04	0.497	1.15	0.536	–
at -5	1.16	1.59	1.36	0.81	1.17	1.09	0.596	1.35	0.627	–
